Key:
[1] = Enzymatic activity comparison: activity remaining after 65° C. for 10 min at pH 6.0, relative to SEQ ID NO: 1; type: physicochemical
Procedure: To compare the temperature behavior and thermostability of selected enzymes to one another, enzyme was incubated at 65° C. for 10 min at pH 6.0. The enzymatic activity remaining after incubation was compared to the remaining activity of the enzyme of SEQ ID NO: 1 after incubation, the latter being set to 100%, see Table 16.

[2] = OTA detoxification activity assay (specific activity, fluorescence reduction ex/em 390/450 nm); type: biochemical; settings: SEQ ID NO: 1 = 100%
In short: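 Recombinant enzyme preparation with 200 ng/mL OTA in 100 mM sodium phosphate, at pH 6.0 and pH 7.5, 37° C. Degradation followed as the fall in fluorescence at ex/em 390/450 nm. Specific activity taken from the initial linear slope; one unit degrades 1 μmol OTA per min at a starting OTA of […].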

Row | Molecule | Enzymatic activity remaining after incubation, compared to SEQ ID NO: 1 (set to 100%) [1] [%] | Specific OTA detoxification activities in % compared to the enzyme of SEQ ID NO: 1, pH 6.0 [2] [%] | Specific OTA detoxification activities in % compared to the enzyme of SEQ ID NO: 1, pH 7.5 [2] [%]
1 | 105 (protein, exemplary polypeptide) MTTRTRILTAFLSLLAANACAADAAPAAPHTVVLRAARMFDGASGKLVDHPQLTIVGNKIVRIAQGDKAEVPAGAEVVDLGDATLLPGFIDAHVHLSGQSSDNWYGDFFDNMMRFPAEQALYGAYYARITLEAGFTSVRDVGSTDWVALGLRNAIDAGKVPGPRMLVSNYAVGSTGGHADQDPIPPQKLPLAGPLQGVCNGPEECRAAVRYQIKYGANVIKFMPSGGVLSLSDPVDAPELSQDEMNAVIGESHAWGRKVAAHAHGDKAAKMAVAAGVDSIEHGSFIEDDTLRAMKAKNVYLVPTISAIAHVEEKIGTFPPVIAEKGRAAAAHLRQTFRHAVQIGVPIALGTDAGVGAHGSNAREFRYMVENGLTPAQALLAGTANAARLLGTFDRVGTLEAGKLADVVAVPGNPIADITVTERPLFVMKDGVVVRRDAVR | 15 | 81 | 120
2 | 111 (protein, exemplary polypeptide) MTTRTRILTAFLSLLAANACAADAAPAAPHTVVLRAARMFDGASGKLVDHPQLTIVGNKIVRIAQGDKAEVPAGAEVVDLGDATLLPGFIDAHVHLSGQSSDNWYGDFFDNMMRFPAEQALYGAYYARITLEAGFTSVRDVGSTDWVALGLRNAIDAGKVPGPRMLVSNYAVGSTGGHADQDPIPPHKLPLAGPLQGVCNGPEECRAAVRYQIKYGANVIKFMPSGGVLSLSDPVDAPELSQDEMNAVIGESHAWGRKVAAHAHGDKAAKMAVAAGVDSIEHGSFIEDDTLRAMKAKNVYLVPTISAIAHVEEKIGTFPPVIAEKGRAAAAQLRQTFRHAVQIGVPIALGTDAGVGAHGSNAREFRYMVENGLTPAQALLAGTANAARLLGTFDRVGTLEAGKLADVVAVPGNPIADITVTERPLFVMKDGVVVRRDAVR | 35 | 8 | 52
3 | 107 (protein, exemplary polypeptide) MTTRTRILTAFLSLLAANACAADAAPAAPHTVVLRAARMFDGASGKLVDHPQLTIVGNKIVRIAQGDKAEVPAGAEVVDLGDATLLPGFIDAHVHLSGQSSDNWYGDFFDNMMRFPAEQALYGAYYARITLEAGFTSVRDVGSTDWVALGLRNAIDAGKVPGPRMLVSNYAVGSTGGHADQDPIPPHKLPLAGPLQGVCNGPEECRAAVRYQIKYGANVIKFMPSGGVLSLSDPVDAPELSQDEMNAVIGESHAWGRKVAAHAHGDKAAKMAVAAGVDSIEHGSFIEDDTLRAMKAKNVYLVPTISAIAQVEEKIGTFPPVIAEKGRAAAAHLRQTFRHAVQIGVPIALGTDAGVGAHGSNAREFRYMVENGLTPAQALLAGTANAARLLGTFDRVGTLEAGKLADVVAVPGNPIADITVTERPLFVMKDGVVVRRDAVR | 21 | 54 | 92
4 | 121 (protein, exemplary polypeptide) MTTRTRILTAFLSLLAANACAADAAPAAPHTVVLRAARMFDGASGKLVDHPQLTIVGNKIVRIAQGDKAEVPAGAEVVDLGDATLLPGFIDAHVHLSGQSSDNWYGDFYDNMMRFPAEQALYGAYYARITLEAGFTSVRDVGSTDWVALGLRNAIDAGKVPGPRMLVSNYAVGSTGGHADQDPIPPHKLPLAGPLQGVCNGPEECRAAVRYQIKYGANVIKFMPSGGVLSLSDPVDAPELSQDEMNAVIGESHAWGRKVAAHAHGDKAAKMAVAAGVDSIEHGSFIEDDTLRAMKAKNVYLVPTISAIAHVEEKIGTFPPVIAEKGRAAAAHLRQTFRHAVQIGVPIALGTDAGVGAHGSNAREFRYMVENGLTPAQALLAGTANAARLLGTFDRVGTLEAGKLADVVAVPGNPIADITVTERPLFVMKDGVVVRRDAVR | 40 | 84 | 78
5 | 113 (protein, exemplary polypeptide) MTTRTRILTAFLSLLAANACAADAAPAAPHTVVLRAARMFDGASGKLVDHPQLTIVGNKIVRIAQGDKAEVPAGAEVVDLGDATLLPGFIDAHVHLSGQSSDNWYGDFFDNMMRFPAEQALYGAYYARITLEAGFTSVRDVGSTDWVALGLRNAIDAGKVPGPRMLVSNYAVGSTGGHADQDPIPPHKLPLAGPLQGVCNGPEECRAAVRYQIKYGANVIKFMPSGGVLSLSDPVDAPELSQDEMNAVIGESHAWGRKVAAHAHGDKAAKMAVAAGVDSIEHGSFIQDDTLRAMKAKNVYLVPTISAIAHVEEKIGTFPPVIAEKGRAAAAHLRQTFRHAVQIGVPIALGTDAGVGAHGSNAREFRYMVENGLTPAQALLAGTANAARLLGTFDRVGTLEAGKLADVVAVPGNPIADITVTERPLFVMKDGVVVRRDAVR | 62 | 31 | 95
6 | 108 (protein, exemplary polypeptide) MTTRTRILTAFLSLLAANACAADAAPAAPHTVVLRAARMFDGASGKLVDHPQLTIVGNKIVRIAQGDKAEVPAGAEVVDLGDATLLPGFIDAHVHLSGQSSDNWYGDFFDNMMRFPAEQALYGAYYARITLEAGFTSVRDVGSTDWVALGLRNAIDAGKVPGPRMLVSNYAVGSTGGHADQDPIPPHKLPLAGPLQGVCNGPEECRAAVRYQIKYGANVIKFMPSGGVLSLSDPVDAPELSQDEMNAVIGESHAWGRKVAAHAHGDKAAKMAVAAGVDSIEHGSFIEDDTLRAMKAKNVYLVPTISAIANVEEKIGTFPPVIAEKGRAAAAHLRQTFRHAVQIGVPIALGTDAGVGAHGSNAREFRYMVENGLTPAQALLAGTANAARLLGTFDRVGTLEAGKLADVVAVPGNPIADITVTERPLFVMKDGVVVRRDAVR | 27 | 61 | 96
7 | 106 (protein, exemplary polypeptide) MTTRTRILTAFLSLLAANACAADAAPAAPHTVVLRAARMFDGASGKLVDHPQLTIVGNKIVRIAQGDKAEVPAGAEVVDLGDATLLPGFIDAHVHLSGQSSDNWYGDFFDNMMRFPAEQALYGAYYARITLEAGFTSVRDVGSTDWVALGLRNAIDAGKVPGPRMLVSNYAVGSTGGHADQDPIPPNKLPLAGPLQGVCNGPEECRAAVRYQIKYGANVIKFMPSGGVLSLSDPVDAPELSQDEMNAVIGESHAWGRKVAAHAHGDKAAKMAVAAGVDSIEHGSFIEDDTLRAMKAKNVYLVPTISAIAHVEEKIGTFPPVIAEKGRAAAAHLRQTFRHAVQIGVPIALGTDAGVGAHGSNAREFRYMVENGLTPAQALLAGTANAARLLGTFDRVGTLEAGKLADVVAVPGNPIADITVTERPLFVMKDGVVVRRDAVR | 27 | 88 | 126
8 | 122 (protein, exemplary polypeptide) MTTRTRILTAFLSLLAANACAADAAPAAPHTVVLRAARMFDGASGKLVDHPQLTIVGNKIVRIAQGDKAEVPAGAEVVDLGDATLLPGFIDAHVHLSGQSSDNWYGDFFDNMMRFPAEQALYGAYYARITLEAGFTSVRDVGSTDWVALGLRNAIDAGKVPGPRMLVSNYAVGSTGGHADQDPIPPHKLPLAGPLQGVCNGPEECRAAVRYQIKYGANVIKFMPSGGVLSLSDPVDAPELSPDEMNAVIGESHAWGRKVAAHAHGDKAAKMAVAAGVDSIEHGSFIEDDTLRAMKAKNVYLVPTISAIAHVEEKIGTFPPVIAEKGRAAAAHLRQTFRHAVQIGVPIALGTDAGVGAHGSNAREFRYMVENGLTPAQALLAGTANAARLLGTFDRVGTLEAGKLADVVAVPGNPIADITVTERPLFVMKDGVVVRRDAVR | 40 | 59 | 80
9 | 120 (protein, exemplary polypeptide) MTTRTRILTAFLSLLAANACAADAAPAAPHTVVLRAARMFDGASGKLVDHPQLTIVGNKIVRIAQGDKAEVPAGAEVVDLGDATLLPGFIDAHVHLSGQSSDNWYGDFFDNMMRFPAEQALYGAYWARITLEAGFTSVRDVGSTDWVALGLRNAIDAGKVPGPRMLVSNYAVGSTGGHADQDPIPPHKLPLAGPLQGVCNGPEECRAAVRYQIKYGANVIKFMPSGGVLSLSDPVDAPELSQDEMNAVIGESHAWGRKVAAHAHGDKAAKMAVAAGVDSIEHGSFIEDDTLRAMKAKNVYLVPTISAIAHVEEKIGTFPPVIAEKGRAAAAHLRQTFRHAVQIGVPIALGTDAGVGAHGSNAREFRYMVENGLTPAQALLAGTANAARLLGTFDRVGTLEAGKLADVVAVPGNPIADITVTERPLFVMKDGVVVRRDAVR | 23 | 85 | 90
10 | 119 (protein, exemplary polypeptide) MTTRTRILTAFLSLLAANACAADAAPAAPHTVVLRAARMFDGASGKLVDHPQLTIVGNKIVRIAQGDKAEVPAGAEVVDLGDATLLPGFIDAHVHLSGQSSDNWYGDFFDNMMRFPAEQALRGAYYARITLEAGFTSVRDVGSTDWVALGLRNAIDAGKVPGPRMLVSNYAVGSTGGHADQDPIPPHKLPLAGPLQGVCNGPEECRAAVRYQIKYGANVIKFMPSGGVLSLSDPVDAPELSQDEMNAVIGESHAWGRKVAAHAHGDKAAKMAVAAGVDSIEHGSFIEDDTLRAMKAKNVYLVPTISAIAHVEEKIGTFPPVIAEKGRAAAAHLRQTFRHAVQIGVPIALGTDAGVGAHGSNAREFRYMVENGLTPAQALLAGTANAARLLGTFDRVGTLEAGKLADVVAVPGNPIADITVTERPLFVMKDGVVVRRDAVR | 45 | 107 | 101

— patent publication US20240352438A1, “MEANS AND METHODS FOR DETOXIFYING OCHRATOXIN A” (DSM Austria GmbH, priority 2021, published 2024)
